Measured values reported in paper PMC11190991, “Encapsulation of Transketolase into In Vitro-Assembled Protein Nanocompartments Improves Thermal Stability” (ACS Applied Bio Materials, 2024).

Key:
[1] = biological target: E. coli transketolase with C-terminal T. maritima cargo loading peptide (E. coli | T. maritima)
[2] = biological target: Thermotoga maritima encapsulin (T = 1 capsid shell) (Thermotoga maritima) (UniProt Q9WZP2); assay: SEC; in vitro loading during reassembly (10 μM encapsulin monomer, cargo at stated molar ratio), SEC on Superose 6 to remove non-encapsulated cargo, co-eluted cargo seen by SDS-PAGE and quantified by densitometry against standard curves
[3] = biological target: Myxococcus xanthus encapsulin (T = 1 and T = 3 capsid shells) (Myxococcus xanthus) (UniProt Q1D6H4); assay: as above
[4] = biological target: Myxococcus xanthus encapsulin (T = 1 and T = 3 capsid shells) (Myxococcus xanthus) (UniProt Q1D6H4); assay: co-purification after co-expression + SDS-PAGE densitometry; in vivo loading: sfGFP-CLP co-expressed with Strep-tagged encapsulin in E. coli, capsids purified (SEC purified samples), cargo quantified by SDS-PAGE densitometry; single experiment
[5] = biological target: Thermotoga maritima encapsulin (T = 1 capsid shell) (Thermotoga maritima) (UniProt Q9WZP2); assay: as above
Q9WZP2 = assay: SEC; Superose 6 10/300 GL, 20 mM Tris-Cl, 50 mM NaCl, pH 7.5; A280 peak area of higher-order structures after reassembly against before disassembly; Tm_encap from 0.15 M NaOH, Mx_encap from 8 M urea
[6] = biological target: the molecule itself; assay: native gel or EMSA; BN-PAGE of samples disassembled in denaturant: 6 M GuHCl, 8 M urea (20 mM Tris-Cl pH 7.5), 0.15 M HCl pH 1.0 or 0.15 M NaOH pH 13.0

**Q.** How did the end-point transketolase activity (erythrulose from HPA and GA) of TK-TmCLP encapsulated in Tm encap, against free TK (100%) [1] turn out when “E. coli transketolase with C-terminal T. maritima cargo loading peptide (enzyme)” was run?
**A.** The end-point transketolase activity (erythrulose from HPA and GA) of TK-TmCLP encapsulated in Tm encap, against free TK (100%) was 50 % drop.

**Q.** What about the stoichiometry N (dimers per capsid) [2] of the same molecule?
**A.** Its stoichiometry N (dimers per capsid) is 2.6.

**Q.** For “superfolder GFP with C-terminal M. xanthus cargo loading peptide”, which stoichiometry N (copies per capsid) [3] is on record?
**A.** The stoichiometry N (copies per capsid) was 20.

**Q.** What about the stoichiometry N (copies per capsid) [4] of the same molecule?
**A.** Its stoichiometry N (copies per capsid) is 31.

**Q.** How did the stoichiometry N (copies per capsid) [2] turn out when “superfolder GFP with C-terminal T. maritima cargo loading peptide” was run?
**A.** The stoichiometry N (copies per capsid) was 15.

**Q.** What about the stoichiometry N (molecules per capsid) [5] of the same molecule?
**A.** Its stoichiometry N (molecules per capsid) is 2.94.

B1: Thermotoga maritima encapsulin (T = 1 capsid shell) (natural protein, UniProt Q9WZP2 1-265, looked up)
chain: MEFLKRSFAPLTEKQWQEIDNRAREIFKTQLYGRKFVDVEGPYGWEYAAHPLGEVEVLSDENEVVKWGLRKSLPLIELRATFTLDLWELDNLERGKPNVDLSSLEETVRKVAEFEDEVIFRGCEKSGVKGLLSFEERKIECGSTPKDLLEAIVRALSIFSKDGIEGPYTLVINTDRWINFLKEEAGHYPLEKRVEECLRGGKIITTPRIEDALVVSERGGDFKLILGQDLSIGYEDREKDAVRLFITETFTFQVVNPEALILLKF
notes: T = 1 capsid, 1.97 MDa; also called T. maritima encapsulin; source: E. coli BL21 Star (DE3), purified (Strep-TactinXT); disassembled and reassembled in vitro; also co-expressed with sfGFP-TmCLP for in vivo loading; not shown: Strep-Tag II (after a GSG linker), C-terminal, kept; copies: 60
**Q.** B1 was tested. Which “recovery of higher-order structures after reassembly (SEC peak area, 8-14 mL)” value (Q9WZP2) did it give?
**A.** The value was “we determined the recovery to be 82%”.

**Q.** And the “stoichiometry N” value [6]?
**A.** Its value is 2.
